Results on one protein are retold here after paper PMC6194269, “Structural and functional characterization of hMEX‐3C Ring finger domain as an E3 ubiquitin ligase” (Protein Science : A Publication of the Protein Society, 2018).

This data set deals with the molecule itself. As to the kind of experiment: SEC; GST fusion digested by TEV protease and loaded on an S75 column; molecular weight calculated from elution volume.

B1: Ring finger domain of hMEX-3C (domain or fragment, human, UniProt Q5U5Q3 603-659, looked up)
chain: RRKHDCVICFENEVIAALVPCGHNLFCMECANKICEKRTPSCPVCQTAVTQAIQIHS
notes: two zinc ions per monomer; also called hMEX-3C Ring finger domain; hMEX-3C Ring homodimer; source: E. coli BL21 (DE3), purified (GST column, Superdex 75); GST fusion digested by TEV protease
With B1, the “stoichiometry N” value is 2.

Usually stoichiometry N stands for a count of units in the complex or per binding partner.
